{
  "source": "patent US20190062442A1",
  "target": "FLAG-tagged human PrP^c_N1 (recombinant N-terminal fragment of cellular prion protein, 23-111 amino-acids) (human) (UniProt P04156)",
  "sequence (P04156 23-111)": "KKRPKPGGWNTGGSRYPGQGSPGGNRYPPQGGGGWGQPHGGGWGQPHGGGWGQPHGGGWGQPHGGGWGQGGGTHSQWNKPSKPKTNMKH",
  "data": [
    {"substance": "anti-CD230 (Prion) antibody 6D11 Mu IgG2a (BioLegend, San Diego, Calif.)", "values": [
      {"measurement": "IC50", "result": 17.6, "unit": "nM"}
    ]}
  ]
}
